pEC50, pKd: −log10 of the molar value.
Legend:
[1] = target: human CD47 (surface plasmon resonance) (human) (UniProt Q08722); assay: SPR; orientation and conditions not given (Table S2, supplementary methods)
[2] = target: human 4-1BB (surface plasmon resonance) (human) (UniProt Q07011); assay: as above
[3] = target: cynomolgus CD47 (cynomolgus); assay: as above
[4] = target: cynomolgus 4-1BB (cynomolgus); assay: as above
[5] = target: 4-1BB on HT1080.4-1BB cells (UniProt Q07011); assay: cell doublet formation by flow cytometry; mixed CFSE stained CHO.CD47 and CytoLightRed stained HT1080.4-1BB cells with 5 μg/ml DSP107; doublets as double-positive events; blocking with CD47 mAb or soluble 4-1BBL
[6] = target: human CD47 expressed on CHO-K1 cells (human) (UniProt Q08722); assay: as above
[7] = target: Dual Signaling Protein 107 (DSP107) (human) (UniProt P78324); assay: SEC-MALS; purified DSP107 in solution
[8] = target: human CD47:Fc protein (human) (UniProt Q08722); assay: ELISA; dual-binding ELISA: human CD47:Fc as capture, DSP107 titrated, human biotinylated-4-1BB as detector; three separately produced batches of DSP107

Chain of human CD47 expressed on CHO-K1 cells (human) (Q08722 19-323): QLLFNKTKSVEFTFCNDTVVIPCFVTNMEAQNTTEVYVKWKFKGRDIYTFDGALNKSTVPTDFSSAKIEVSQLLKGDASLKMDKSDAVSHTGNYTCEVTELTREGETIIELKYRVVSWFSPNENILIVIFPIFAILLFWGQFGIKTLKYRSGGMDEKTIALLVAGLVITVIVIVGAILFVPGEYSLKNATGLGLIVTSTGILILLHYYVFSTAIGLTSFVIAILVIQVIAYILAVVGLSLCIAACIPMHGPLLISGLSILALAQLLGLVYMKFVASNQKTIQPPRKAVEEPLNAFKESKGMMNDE
Chain of human CD47 (surface plasmon resonance) (human) (Q08722 19-323): as above
Chain of 4-1BB on HT1080.4-1BB cells (Q07011 24-255): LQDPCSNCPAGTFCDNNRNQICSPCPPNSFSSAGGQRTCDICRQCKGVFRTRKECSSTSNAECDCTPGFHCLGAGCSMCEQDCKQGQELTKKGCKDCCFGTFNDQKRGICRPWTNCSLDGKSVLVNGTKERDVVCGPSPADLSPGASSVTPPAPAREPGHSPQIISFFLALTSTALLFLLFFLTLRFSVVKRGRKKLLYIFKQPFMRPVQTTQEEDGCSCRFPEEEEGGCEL
Chain of human 4-1BB (surface plasmon resonance) (human) (Q07011 24-255): as above

- pKd [1]: 8.93
- pKd [2]: 9.15
- pKd [3]: 8.76
- pKd [4]: 9.47
- percent doublets of CHO-K1.CD47 and HT1080.4-1BB cells [5]: 25%
- percent doublets of CHO-K1.CD47 and HT1080.4-1BB cells [6]: 25%
- stoichiometry N [7]: 3
- pEC50 [8]: 9.03
Substance: Dual Signaling Protein 107 (DSP107) (from UniProt P78324 31-373; P41273 50-254)

Reference: publication PMC8919572
